According to patent publication US20210261648A1 (published 2021):
Substitutions are numbered along the chain they refer to.

T1: FcγRIIa type H extracellular domain with C-terminal His tag (human, UniProt P12318 34-217)
T1 construct: extracellular domain; also called FcgRIIaH; FcγRIIa H
T1 sequence (looked up): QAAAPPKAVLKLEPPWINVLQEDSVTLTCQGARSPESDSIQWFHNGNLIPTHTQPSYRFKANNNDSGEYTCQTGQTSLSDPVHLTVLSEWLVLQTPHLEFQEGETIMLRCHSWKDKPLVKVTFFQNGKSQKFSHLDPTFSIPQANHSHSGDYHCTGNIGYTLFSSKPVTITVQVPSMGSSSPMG

T2: FcγRIIb extracellular domain with C-terminal His tag (human, UniProt P31994 43-217)
T2 construct: extracellular domain; also called FcgRIIb
T2 sequence (looked up): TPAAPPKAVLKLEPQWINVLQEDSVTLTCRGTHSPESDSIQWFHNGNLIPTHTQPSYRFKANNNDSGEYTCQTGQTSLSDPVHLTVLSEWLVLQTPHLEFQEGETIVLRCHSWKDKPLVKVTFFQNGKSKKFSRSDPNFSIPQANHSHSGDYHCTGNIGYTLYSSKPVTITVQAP

T3: FcγRIIa type R (human, UniProt P12318 34-217)
T3 chain: T1 sequence (looked up) with H134R

T4: FcγRIIb (human, UniProt P31994 43-217)
T4 construct: extracellular domain; also called FcgRIIb; CD32B
T4 sequence (looked up): T2 sequence (looked up)

B1: IL6R-BP084/IL6R-L (antibody, human IgG1, kappa)
heavy: QVQLQESGPGLVKPSETLSLTCAVSGHSISHDHAWSWVRQPPGEGLEWIGFISYSGITNYNPSLQGRVTISRDNSKNTLYLQMNSLRAEDTAVYYCARSLARTTAMDYWGEGTLVTVSSASTKGPSVFPLAPSSKSTSGGTAALGCLVKDYFPEPVTVSWNSGALTSGVHTFPAVLQSSGLYSLSSVVTVPSSSLGTQTYICNVNHKPSNTKVDKKVEPKSCDKTHTCPPCPAPELLGGDSVFLFPPKPKDTLMISRTPEVTCVVVDVSHEDPEVKFNWYVDGVEVHNAKTKPREEQYNSTYRVVSVLTVLHQDWLNGKEYKCKMSNKALPKPIEKTISKAKGQPREPQVYTLPPSRDELTKNQVSLTCLVKGFYPSDIAVEWESNGQPENNYKTTPPVLDSDGSFFLYSKLTVDKSRWQQGNVFSCSVMHEALHNHYTQESLSLSP
light: not shown
B2: IL6R-BP559/IL6R-L (antibody, human IgG1, kappa)
heavy: B1 heavy with V266I, S269A, H270E, P273G, E274D, Y298D, M325V, K332A
light: not shown
notes: Alterations in EU numbering, introduced into IL6R-B3
B3: IL6R-BP195/IL6R-L (antibody, human IgG1, kappa)
heavy: B1 heavy with E235D, L236Y, G239D, H270D, P273G, Y298D, M325V, K328A
light: not shown
B4: IL6R-BP501/IL6R-L (antibody, human IgG1, kappa)
heavy: B1 heavy with G239D, V266I, S269A, H270E, P273G, M325V, K332A
light: not shown
notes: as for B2
B5: IL6R-BP483/IL6R-L (antibody, human IgG1, kappa)
heavy: B1 heavy with E235D, G239D, V268L, S269A, H270E, P273G, M325V, K332A
light: not shown
notes: as for B2
B6: IL6R-BP087/IL6R-L (antibody, human IgG1, kappa)
heavy: B1 heavy with L236Y, M325V
light: not shown
B7: IL6R-BP481/IL6R-L (antibody, human IgG1, kappa)
heavy: B1 heavy with E235D, G239D, V266I, S269A, H270E, P273G, M325V, K332A
light: not shown
notes: as for B2
B8: IL6R-BP178/IL6R-L (antibody, human IgG1, kappa)
heavy: B1 heavy with E235D, G239D, P273G, M325V
light: not shown
B9: IL6R-BP508/IL6R-L (antibody, human IgG1, kappa)
heavy: B1 heavy with E235D, G239D, V266I, S269A, H270E, P273G, E274P, Y298D, M325V, K332A
light: not shown
notes: as for B2
B10: IL6R-BP151/IL6R-L (antibody, human IgG1, kappa)
heavy: B1 heavy with E235D, L236Y, G239D, M325V, K328A, K332R
light: not shown
B11: IL6R-BP509/IL6R-L (antibody, human IgG1, kappa)
heavy: B1 heavy with E235D, G239D, V266I, S269A, H270E, P273G, E274D, Y298D, M325V, K332A
light: not shown
notes: as for B2
B12: IL6R-BP190/IL6R-L (antibody, human IgG1, kappa)
heavy: B1 heavy with G239D, H270D, P273G, M325V
light: not shown
B13: IL6R-BP495/IL6R-L (antibody, human IgG1, kappa)
heavy: B1 heavy with G239D, S269G, H270E, P273G, Y298D, M325V, K332R
light: not shown
notes: as for B2
B14: IL6R-BP088/IL6R-L (antibody, human IgG1, kappa)
heavy: B1 heavy with G239D, M325V, K328A
light: not shown
B15: IL6R-BP445/IL6R-L (antibody, human IgG1, kappa)
heavy: B1 heavy with E235D, G239D, V266I, S269A, H270E, P273G, M325V, K332R
light: not shown
notes: as for B2
B16: IL6R-BP500/IL6R-L (antibody, human IgG1, kappa)
heavy: B1 heavy with G239D, V266I, S269A, H270E, P273G, Y298D, M325V, K332A
light: not shown
notes: as for B2
B17: IL6R-BP504/IL6R-L (antibody, human IgG1, kappa)
heavy: B1 heavy with E235D, G239D, V266I, S269A, H270E, P273G, E274P, M325V, K332A
light: not shown
notes: as for B2
B18: IL6R-BP492/IL6R-L (antibody, human IgG1, kappa)
heavy: B1 heavy with V266I, S269A, H270E, P273G, M325V, K332A
light: not shown
notes: as for B2
B19: IL6R-BP493/IL6R-L (antibody, human IgG1, kappa)
heavy: B1 heavy with V266I, S269A, H270E, P273G, Y298D, M325V, K332A
light: not shown
notes: as for B2
B20: IL6R-BP146/IL6R-L (antibody, human IgG1, kappa)
heavy: B1 heavy with L236Y, G239D, M325V, K328A, K332A
light: not shown
B21: IL6R-BP484/IL6R-L (antibody, human IgG1, kappa)
heavy: B1 heavy with E235D, G239D, S269A, H270E, E271D, P273G, M325V, K332A
light: not shown
notes: as for B2
B22: IL6R-BP505/IL6R-L (antibody, human IgG1, kappa)
heavy: B1 heavy with E235D, G239D, V266I, S269A, H270E, P273G, E274D, M325V, K332A
light: not shown
notes: as for B2
B23: IL6R-BP131/IL6R-L (antibody, human IgG1, kappa)
heavy: B1 heavy with E235D, G239D, M325V
light: not shown
B24: IL6R-BP494/IL6R-L (antibody, human IgG1, kappa)
heavy: B1 heavy with G239D, S269A, H270E, P273G, Y298D, M325V, K332R
light: not shown
notes: as for B2
B25: IL6R-BP479/IL6R-L (antibody, human IgG1, kappa)
heavy: B1 heavy with E235D, G239D, V266I, V268L, S269A, H270E, P273G, M325V, K332A
light: not shown
notes: as for B2
B26: IL6R-BP130/IL6R-L (antibody, human IgG1, kappa)
heavy: B1 heavy with E235D
light: not shown
B27: IL6R-BP269/IL6R-L (antibody, human IgG1, kappa)
heavy: B1 heavy with G239D, H270E, P273G, Y298D, M325V, K332A
light: not shown
notes: as for B2
B28: IL6R-BP549/IL6R-L (antibody, human IgG1, kappa)
heavy: B1 heavy with G239D, S269G, H270E, P273G, M325V, K332R
light: not shown
notes: as for B2

Key:
[1] = molecular target: T1, FcγRIIa type H extracellular domain …; assay: SPR, captured antibody, FcgR analyte
Experimental: (§1) Relative binding activities were calculated for the results of analyzing interactions with the respective FcγRs according to the following method.

[2] = molecular target: T5, FcγRIa extracellular domain with C-terminal His tag (human, UniProt P12314 16-292); assay: SPR, captured antibody, FcgR analyte
T5 construct: also called FcgRIa
T5 sequence (P12314 16-292): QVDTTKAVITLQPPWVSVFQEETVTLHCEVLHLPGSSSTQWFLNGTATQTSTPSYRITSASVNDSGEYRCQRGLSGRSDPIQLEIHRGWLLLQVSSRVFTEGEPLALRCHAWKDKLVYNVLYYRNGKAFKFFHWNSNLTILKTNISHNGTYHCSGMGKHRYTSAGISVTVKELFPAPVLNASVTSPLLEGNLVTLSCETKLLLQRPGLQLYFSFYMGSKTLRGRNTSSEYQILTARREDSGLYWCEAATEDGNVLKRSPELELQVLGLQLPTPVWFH
Experimental: as §1

[3] = molecular target: T2, FcγRIIb extracellular domain with …; assay: SPR, captured antibody, FcgR analyte
Experimental: as §1

FcγRIIa type R [4] = molecular target: T3, FcγRIIa type R; assay: SPR (Biacore), captured antibody, soluble FcγR
FcγRIa = molecular target: T6, FcγRIa (human, UniProt P12314 16-292); assay: SPR (Biacore), captured antibody, soluble FcγR
T6 construct: Whole entry named; also called FcgRIa; CD64A
T6 sequence (P12314 16-292): as above

FcγRIIb [5] = molecular target: T4, FcγRIIb; assay: SPR (Biacore), captured antibody, soluble FcγR
FcγRIIa type R [6] = molecular target: T3, FcγRIIa type R; assay: SPR (Biacore); parent = IL6R-B3/IL6R-L
FcγRIIb [7] = molecular target: T4, FcγRIIb; assay: SPR (Biacore); parent = IL6R-B3/IL6R-L

Row | Binder | relative binding activity [1] | relative binding activity [2] | relative binding activity [3] | Kd (FcγRIIa type R [4]) | Kd (FcγRIa) | Kd (FcγRIIb [5]) | KD(IIaR) of the parent polypeptide/KD(IIaR) of the altered polypeptide (FcγRIIa type R [6]) | KD(IIb) of the parent polypeptide/KD(IIb) of the altered polypeptide (FcγRIIb [7])
1 | B1 | 162 relative (IL6R-BF648/IL6R-L = 100) | 109 relative (IL6R-BF648/IL6R-L = 100) | 141 relative (IL6R-BF648/IL6R-L = 100) |  |  |  |  | 
2 | B2 |  |  |  | 1600 nM | 1.1 nM | 28 nM | 0.7 fold | 110 fold
3 | B3 | 344 relative (IL6R-BF648/IL6R-L = 100) | 68 relative (IL6R-BF648/IL6R-L = 100) |  |  |  |  |  | 
4 | B4 |  |  |  | 630 nM | 2.1 nM | 25 nM | 1.7 fold | 123 fold
5 | B5 |  |  |  | 1300 nM | 1.3 nM | 78 nM | 0.8 fold | 39.7 fold
6 | B6 | 179 relative (IL6R-BF648/IL6R-L = 100) | 33 relative (IL6R-BF648/IL6R-L = 100) | 137 relative (IL6R-BF648/IL6R-L = 100) |  |  |  |  | 
7 | B7 |  |  |  | 400 nM | 1 nM | 19 nM | 2.8 fold | 160 fold
8 | B8 | 259 relative (IL6R-BF648/IL6R-L = 100) |  | 179 relative (IL6R-BF648/IL6R-L = 100) |  |  |  |  | 
9 | B9 |  |  |  | 540 nM | 1.4 nM | 21 nM | 2 fold | 149 fold
10 | B10 | 621 relative (IL6R-BF648/IL6R-L = 100) | 39 relative (IL6R-BF648/IL6R-L = 100) |  |  |  |  |  | 
11 | B11 |  |  |  | 520 nM | 1.1 nM | 18 nM | 2.1 fold | 174 fold
12 | B12 | 224 relative (IL6R-BF648/IL6R-L = 100) | 50 relative (IL6R-BF648/IL6R-L = 100) |  |  |  |  |  | 
13 | B13 |  |  |  | 490 nM | 8.3 nM | 9.7 nM | 2.2 fold | 321 fold
14 | B14 | 166 relative (IL6R-BF648/IL6R-L = 100) | 25 relative (IL6R-BF648/IL6R-L = 100) | 161 relative (IL6R-BF648/IL6R-L = 100) |  |  |  |  | 
15 | B15 |  |  |  | 80 nM | 2 nM | 2.6 nM | 13.8 fold | 1200 fold
16 | B16 |  |  |  | 720 nM | 2.3 nM | 24 nM | 1.5 fold | 128 fold
17 | B17 |  |  |  | 450 nM | 1.4 nM | 24 nM | 2.4 fold | 128 fold
18 | B18 |  |  |  | 920 nM | 0.79 nM | 24 nM | 1.2 fold | 131 fold
19 | B19 |  |  |  | 1100 nM | 0.82 nM | 21 nM | 1 fold | 147 fold
20 | B20 | 203 relative (IL6R-BF648/IL6R-L = 100) |  | 156 relative (IL6R-BF648/IL6R-L = 100) |  |  |  |  | 
21 | B21 |  |  |  | 780 nM | 0.82 nM | 46 nM | 1.4 fold | 67.8 fold
22 | B22 |  |  |  | 430 nM | 1.1 nM | 21 nM | 2.6 fold | 145 fold
23 | B23 | 253 relative (IL6R-BF648/IL6R-L = 100) | 33 relative (IL6R-BF648/IL6R-L = 100) |  |  |  |  |  | 
24 | B24 |  |  |  | 250 nM | 3.9 nM | 6.6 nM | 4.3 fold | 471 fold
25 | B25 |  |  |  | 900 nM | 5.3 nM | 56 nM | 1.2 fold | 55.5 fold
26 | B26 | 224 relative (IL6R-BF648/IL6R-L = 100) | 104 relative (IL6R-BF648/IL6R-L = 100) |  |  |  |  |  | 
27 | B27 |  |  |  | 2200 nM | 14 nM | 110 nM | 0.5 fold | 27.4 fold
28 | B28 |  |  |  | 570 nM | 18 nM | 16 nM | 1.9 fold | 196 fold
